# Measured values as given in patent US20200223906A1 (Adimab, published 2020).
# Where a chain is given by its changes, count along the chain named.
# B1: ADI-18875 (antibody, V domains shown)
# VH: QVQLQQWGAGLLKPSETLSLTCAVYGGSFSGYSWSWIRQTPGKGLEWIGEINHRGSTNYNPSLKSRVTMSVDTSQNQISLRVTSVTAADTAVYFCAGTNYGEVNTSNQYFFGMDVWGQGTTVTVSS
# VL: DIQVTQSPSSLSASVGDRVTITCRASQSIGTYLNWYQQKPGKPPKLLIYAASNLESGVPSSFSGSGSGTHFTLTISSLQPEHFATYYCQQSYSTPLTFGGGTKVEIK
# notes: full-length IgG from yeast; also called Antibody Number 232; Ab # 232
# B2: ADI-18879 (antibody, V domains shown)
# VH: EVQLLESGGEVKKPGASVKVSCRASGYTFRNYGLTWVRQAPGQGLEWMGWISAYNGNTNYAQKFQGRVTLTTDTSTSTAYMELRSLRSDDTAVYFCARDVPGHGAAFMDVWGTGTTVTVSS
# VL: DIQLTQSPLSLPVTLGQPASISCRSSQSLEASDTNIYLSWFQQRPGQSPRRLIYKISNRDSGVPDRFSGSGSGTHFTLRISRVEADDVAVYYCMQGTHWPPAFGQGTKVDIK
# notes: full-length IgG from yeast
# B3: ADI-18903 (antibody, V domains shown)
# VH: B2 VH with L5V
# VL: B2 VL with D1E, I2T, Q3T, V109L, D110E
# notes: full-length IgG from yeast
# B4: ADI-18927 (antibody, V domains shown)
# VH: QVQLVQSGAEVKKPGASVKVSCKASGYTFTDYFIHWVRQAPGEGLEWMGWVNPLSDNTKYSQKFQGRVTMSTDTSITTAYMYLSRLRFDDTAVYFCASQSSPYTPGALDVWGQGTTVTVSS
# VL: DIQLTQSPSSLPASVGDRVTITCRASQNIGNNLAWYQQKAGRAPKLLIYSASNFHSGVPSRFIGSGSGTVFTLTISSLQPEDFATYFCQQSFTPQFTFGPGTKVEIK
# notes: full-length IgG from yeast
# B5: ADI-18928 (antibody, V domains shown)
# VH: QVQLVQSGAEVKRPGSSVRVSCKASGGTFRKYAISWVRQARGQGLEWMGGIIPMSGPPSYAQKFQGRVTITADESTSTVYMELSSLRFEDTAVYFCARDIEWFVLMDPITSYYPMDVWGQGTTVTVSS
# VL: QSVVTQEPSLTVSPGGTVTLTCGSSTGGVTSGHHTYWFQQKPGQAPRTLIYDTTNTHSWTPARFAGSLLGGKAALTLSGAQPEDEADYYCLLSYSGARPVFGGGTKLTVL
# notes: full-length IgG from yeast
# B6: ADI-18930 (antibody, V domains shown)
# VH: QVQLVQSGAEVKKPGSSVKVSCKASGGTFSGYHISWVRQAPGQGLEWMGGIIHLFGTVNYAPKFQGRVTITADASTGTAYMELNSLMSEDTAVYYCARDAYEVWTGSYLPPFDYWGQGTLVTVSS
# VL: EIVLTQSPGTLSLSPGERVTLSCRASQTVTSSYLAWYQQKPGQAPRLLIYGAFTRATDIPDRFSGSGSGTDFTLTISRLEPEDSAVYYCQQYGSSFLTFGGGTKVDIK
# notes: full-length IgG from yeast
# B7: ADI-18932 (antibody, V domains shown)
# VH: QVQLQESGPGLVRPSQTLSLTCSASGAAINSGDYYWSWIRQAPGRGLEWIGSISNRGVTDYNPSLKSRVIISADTSKNQFSLRLTSVTATDTAVYYCARDLGTLAFDPYYYYGIDVWGQGTTVTVSS
# VL: DIRMTQSPATLSLSPGERATLSCRASQSVSRHLAWYQQKPGQAPRLLIYDASYRVTGVPDRFSGSGSGTDFTLTISSLESEDFAIYFCQQRSTWPTFGQGTKVEIK
# notes: full-length IgG from yeast
# B8: ADI-18880 (antibody, V domains shown)
# VH: QVQLVQSGSEVKKPGAAVKVSCKASGYIFANFGVSWVRQAPGQGLEWMGWISAYNGNTNYAQKFQGRVIMTTDTSTSTAYMELRSLRSDDTAVYYCARDPPAYAATLMDVWGKGTTVTVSS
# VL: EIVLTQSPLSLPVTLGQSASISCRSSQSLEHSDTNTYLTWYQQRPGQSPRRLLYKVSNRDSGVPDRFSGSGSGTDFTLKISRVEAEDVGVYYCMQGTHWPPTFGQGTKVDIK
# notes: full-length IgG from yeast
# B9: ADI-18904 (antibody, V domains shown)
# VH: B8 VH with Q1E, Q6E
# VL: B8 VL with E1D, L4M, V109L, D110E
# notes: full-length IgG from yeast; also called Antibody Number 259; Ab # 259
# B10: ADI-18935 (antibody, V domains shown)
# VH: QVQLQESGPGLVKPSQTLSLTCTVSGRLLSSGDYYWSWIRQSPGRGLEWIGYVYHSGTTSYNPSLKSRITMTVDTSKNQFNLRLTSVTAADTAVYYCARDLGYSSSSPAFYYGIDFWGPGTMVTVSS
# VL: EIVLTQSPATLSLSPGQRATLSCRASQSVGNYLAWYQQKPGQAPRLLIYDASNRVTGIPARFSGSGSGTDFTLTISRLESEDFAVYYCQQRSNGVLTFGGGTKVDIK
# notes: full-length IgG from yeast
# B11: ADI-18936 (antibody, V domains shown)
# VH: EVQLLESGAEVKKPGASVRVSCKASGYTFTDYFMNWVRQAPGGGLEWMGWVNPLSGATKYAQKFQGRVTMTTDTSITTGYLDLRSLRVDDTAIYFCASQSSPYTPGAMGVWGQGTTVTVSS
# VL: DIQVTQSPSSLSASVGDRVTITCRASQSISGYLSWYQQKPGKAPNLLIYATSNLYSGVPSRFSGRDSGTDFTLTITSLQPEDFATYFCQLNSGALFTFGPGTKVEIK
# notes: full-length IgG from yeast
# B12: ADI-18937 (antibody, V domains shown)
# VH: QVQLQESGPGLVKPSQTLSLTCTVSGPSISAGDYNWNWIRQAPGKGLEWVGYIDYRGLTHYNPSLKGRLSILMDRSANQFSLELNSVTAADTAVYYCARDVGVYSGYDVFHYYGMDVWGQGTTVTVSS
# VL: ETTLTQSPVTLSLSPGERATLSCRASQYVRNNYLAWYQHKPGQAPRLLIYSASSRVTGTPDRFSGSGSGTDFTLTISRLEPEDFAVYYCQQYGGSPPVTFGPGTKVDIK
# notes: full-length IgG from yeast; also called Antibody Number 290; Ab # 290
# B13: ADI-18939 (antibody, V domains shown)
# VH: B1 VH with T40S, M69I, Q75K, I78F, R81K, V82L, T83S, F94Y
# VL: B1 VL with Q3R, V4L, G30T, P43A, S67F, H70D, E81D, H82D, T94A, E105D
# notes: full-length IgG from yeast; also called Antibody Number 292; Ab # 292
# B14: ADI-18882 (antibody, V domains shown)
# VH: QVQLVQSGAEVKKPGSSVRVSCKASGGTFRGYGLSWVRQAPGQGLEWMGGITHLFGTVSYAPKFQGRLTITADASTGTAYMELSSLISEDTAVYFCARDAYEVWTGSYLPPFDYWGQGTMVTVSS
# VL: B6 VL with E1D, L4M, T28I, V29I, T30P, S84F, D106E
# notes: full-length IgG from yeast
# B15: ADI-18953 (antibody, V domains shown)
# VH: B6 VH with H33A, S35N, L54I, V68L, N84S, V93L
# VL: B6 VL with I2T, V3T, S32N, G51D, D58G, I59V, D61A, S84F, D106E
# notes: full-length IgG from yeast
# B16: ADI-18883 (antibody, V domains shown)
# VH: QVQLVQSGPEVKKPGSSVTVSCKASGGTFSNYGIAWVRQAPGQGLEWMGSTIPILGTASYRQSLKDRVTITADASTTTVYMEMTRLRTEDTAVYFCARVPESLVASNAYAVWGQGTVVTVSS
# VL: DIQMTQSPSSVSASVGDRVTITCRASQDISTWLAWYQQRPGKAPKLLIYTASSLQSGVPSRFSGSGSGTEFTLTISSLQPEDFATYYCQQGTSFPFTFGPGTKLEIK
# notes: full-length IgG from yeast
# B17: ADI-18958 (antibody, V domains shown)
# VH: QVQLQESGAEVKMRGASVKVSCKASGYTFSHYGISWVRQAPGQGLEWMGFISAYNHNTKYAQTVQGRVTLSTDTSTSTAYMELRSLRPDDTAMYYCAREPPSDDAARLFDYWGQGTLVTVSS
# VL: ETTLTQSPRSLPVTLGQPASISCRSSQSLVYSEGNTYLSWFQQRPGQSPRRLIYKVSNRDSGVPDRFSGSGSGTDFTLKISRVEAEDVGVYYCMQGTQWPVTFGQGTKVEIK
# notes: full-length IgG from yeast
# B18: ADI-18921 (antibody, V domains shown)
# VH: QVQLVQSGSEVKKPGASVRLSCKVAGYSLSELSMHWVRQSPGKGLEWLGAFDHEDAEAIYAPRFQGRITMTADTSTDTAYMELSSLRSEDTAVYYCATPTPVGATDYWGQGTLVTVSS
# VL: DIQMTQSPSSLSASVGDRVTITCRASQSISSYLNWYQQKPGKAPKLLIYAASSLQRGGPSRFSGSGSGTDFTLTISSLQPEDFATYYCQQSYIIPYTFGQGTKVDIK
# notes: full-length IgG from yeast
# Target: RSV F protein of subtype A (strain A2) on recombinant mKate-RSV virus (Respiratory syncytial virus subtype A …, UniProt P03420 26-574)
# Experiment: cell-based or functional assay
row,Binder,Neut IC50 (µg/ml) subtype A [µg/mL]
1,B1,0.04
2,B2,0.041
3,B3,0.036
4,B4,0.022
5,B5,0.034
6,B6,0.013
7,B7,0.184
8,B8,0.041
9,B9,0.018
10,B10,0.779
11,B11,0.032
12,B12,0.084
13,B13,0.018
14,B14,0.041
15,B15,0.034
16,B16,0.041
17,B17,0.587
18,B18,1.7

# Target: RSV F protein of subtype B (18537) on recombinant mKate-RSV virus (Respiratory syncytial virus subtype B …, UniProt P13843 26-574)
# Experiment: cell-based or functional assay
row,Binder,Neut IC50 (µg/ml) subtype B [µg/mL]
1,B1,0.035
2,B2,0.103
3,B3,0.118
4,B4,0.067
5,B5,0.062
6,B6,0.051
7,B7,0.351
8,B8,0.055
9,B9,0.089
10,B10,0.355
11,B11,0.035
12,B12,0.508
13,B13,0.038
14,B14,0.057
15,B15,0.022
16,B16,0.05
17,B17,3.36
18,B18,1.17

# Target: T1, RSV F subtype A, furin-cleaved ectodomain stabilized in the prefusion conformation (DS-Cav1) (Respiratory syncytial virus subtype A, UniProt P03420 26-524)
# T1 construct: extracellular domain; Trimeric soluble antigen; also called Prefusion subtype A
# Experiment: BLI, IgG on AHQ sensor, 100 nM antigen
row,Binder,Kd [nM]
1,B1,0.736
2,B2,0.312
3,B3,0.324
4,B4,3.58
5,B5,0.449
6,B6,0.387
7,B7,0.917
8,B8,0.255
9,B9,0.251
10,B10,0.66
11,B11,0.303
12,B12,0.289
13,B13,0.574
14,B14,0.427
15,B15,0.513
16,B16,0.431
17,B17,0.286
18,B18,5.75

# Target: T2, RSV F subtype B, furin-cleaved ectodomain stabilized in the prefusion conformation (DS-Cav1) (Respiratory syncytial virus subtype B)
# T2 construct: extracellular domain; Trimeric soluble antigen; also called Prefusion subtype B
# Experiment: BLI, IgG on AHQ sensor, 100 nM antigen
row,Binder,Kd [nM]
1,B1,0.764
2,B2,0.358
3,B3,0.272
4,B4,2.99
5,B5,0.515
6,B6,0.372
7,B7,1.39
8,B8,0.304
9,B9,0.237
10,B10,0.582
11,B11,0.298
12,B12,0.273
13,B13,0.56
14,B14,0.476
15,B15,0.421
16,B16,0.566
17,B17,0.302
